Patent US20030199036

Target: ubiquitin (in vitro thiol-ubiquitination experiment, source not stated)

B1: human pub2 (protein)
chain: MERPYTFKDFLLRPRSHKSRVKGFLRLKMAYMPKNGGQDEENSDQRDDMEHGWEVVDSNDSASQHQEELPPPPLPPGWEEKVDNLGRTYYVNHNNRTTQWHRPSLMDVSSESDNNIRQINQEAAHRRFRSRRHISEDLEPEPSEGGDVPEPWETISEEVNIAGDSLGLALPPPPVSPGSRTSPQELSEELSRRLQITPDSNGEQFSSLIQREPSSRLRSCSVTDAVAEQGHLPPPSVAYVHTTPGLPSGWEERKDAKGRTYYVNHNNRTTTWTRPIMQLAEDGASGSATNSNNHLIEPQIRRPRSLSSPTVTLSAPLEGAKDSPVRRAVKDTLSNPQSPQPSPYNSPKPQHKVTQSFLPPGWEMRIAPNGRPFFIDHNTKTTTWEDPRLKFPVHMRSKTSLNPNDLGPLPPGWEERIHLDGRTFYIDHNSKITQWEDPRLQNPAITGPAVPYSREFKQKYDYFRKKLKKPADIPNRFEMKLHRNNIFEESYRRIMSVKRPDVLKARLWIEFESEKGLDYGGVAREWFFLLSKEMFNPYYGLFEYSATDNYTLQINPNSGLCNEDHLSYFTFIGRVAGLAVFHGKLLDGFFIRPFYKMMLGKQITLNDMESVDSEYYNSLKWILENDPTELDLMFCIDEENFGQTYQVDLKPNGSEIMVTNENKREYIDLVIQWRFVNRVQKQMNAFLEGFTELLPIDLIKIFDENELELLMCGLGDVDVNDWRQHSIYKNGYCPNHPVIQWFWKAVLLMDAEKRIRLLQFVTGTSRVPMNGFAELYGSNGPQLFTIEQWGSPEKLPRAHTCFNRLDLPPYETFEDLREKLLMAVENAQGFEGVD
For B1, which thiol-ubiquitination in vitro is on record?
Its thiol-ubiquitination in vitro is “both h-pub1 and h-pub2 can become thiol-ubiquitinated in vitro”.
